Experiments:
[1] = biological target: T1, integrin α5/β1 (Homo sapiens, UniProt P05556+P08648); assay: FAK phosphorylation in HEK293T cells with forced expression of integrin α5/β1; type: cell-based
T1 construct: expressed in transfected cells; host or cells: HEK293T
Procedure: 100 nM irisin was incubated with 5 nM indicated his-tag integrins followed by immunoprecipitation using Ni-NTA agaroses. Precipitated integrins and co-precipitated irisin were analyzed by immunoblot analysis. […] HEK293T cells were seeded and incubated until 50% cell density. The cells were transfected with 0.1 μg plasmids of indicated integrins. After 48 hours, the cells were re-split to indicated dose of vitronectin-coated plates. Cells were incubated with culture medium for 3 hours. Cells were lysed to detect the indicated protein level using immunoblot analysis. FIG. 15C and FIG. 15D show the immunoblot data. Cells were treated and analyzed as FIG. 14B except using plasmids encoding integrin α5/β1 or integrin α11/β1 (FIG. 15C) integrin αV/β1(FIG. 15D).
HEK293T cells were set up for experiments at 1×10^5 cells per well in 6 well plate. On day 2, cells were transiently transfected with the indicated plasmids with FuGENE® 6 reagent (Roche Applied Science) according to the manufacturer's protocol. […]
Cells were harvested in RIPA buffer containing protease-inhibitor cocktail and phosphataseinhibitor cocktail. […] Protein levels were analyzed via western blot using indicated antibody. […] Protein levels were analyzed using western blot against indicated antibody.

[2] = biological target: integrin αV/β5 (Homo sapiens, UniProt P06756+P18084); assay: FAK phosphorylation in HEK293T cells with forced expression of integrin αV/β5; type: cell-based; set-up: expressed in transfected cells; host or cells: HEK293T; settings: HEK293T, forced expression of integrin αV/β5, irisin 5 minutes
Procedure: 100 nM irisin was incubated with 5 nM indicated his-tag integrins followed by immunoprecipitation using Ni-NTA agaroses. Precipitated integrins and co-precipitated irisin were analyzed by immunoblot analysis. […] HEK293T cells were seeded and incubated until 50% cell density. The cells were transfected with 0.1 μg plasmids of indicated integrins. After 48 hours, the cells were incubated with Freestyle293 medium for 3 hours and were treated with indicated concentration of irisin for 5 minutes. Cells were lysed to detect the indicated protein level using immunoblot analysis. […] Sclerostin mRNA level was analyzed by qRT-PCR. […]
100 nM irisin was incubated with 5 nM indicated his-tag integrins followed by immunoprecipitation using Ni-NTA agaroses. Precipitated integrins and co-precipitated irisin were analyzed by immunoblot analysis. […] Cells were treated and analyzed as FIG. 14B except using plasmids encoding integrin α5/β1 or integrin α11/β1 (FIG. 15C) integrin αV/β1(FIG. 15D).
MLO-Y4 cells were treated and analyzed as described in FIG. 5A with addition of pretreatment of control RGD peptide, cyclo RGDyK (cRGDyK), or SB273005. […] HEK293 cells were treated and analyzed as described in FIG. 14B except the treatment of different dose of cyclo RGDyK. […] 8 weeks old male mice were treated and analyzed as described in FIG. 5D except the additional group with co-injection of 1 mg/kg SB273005. […]

Sequence of integrin αV/β5 (P06756 31-889 limits assumed): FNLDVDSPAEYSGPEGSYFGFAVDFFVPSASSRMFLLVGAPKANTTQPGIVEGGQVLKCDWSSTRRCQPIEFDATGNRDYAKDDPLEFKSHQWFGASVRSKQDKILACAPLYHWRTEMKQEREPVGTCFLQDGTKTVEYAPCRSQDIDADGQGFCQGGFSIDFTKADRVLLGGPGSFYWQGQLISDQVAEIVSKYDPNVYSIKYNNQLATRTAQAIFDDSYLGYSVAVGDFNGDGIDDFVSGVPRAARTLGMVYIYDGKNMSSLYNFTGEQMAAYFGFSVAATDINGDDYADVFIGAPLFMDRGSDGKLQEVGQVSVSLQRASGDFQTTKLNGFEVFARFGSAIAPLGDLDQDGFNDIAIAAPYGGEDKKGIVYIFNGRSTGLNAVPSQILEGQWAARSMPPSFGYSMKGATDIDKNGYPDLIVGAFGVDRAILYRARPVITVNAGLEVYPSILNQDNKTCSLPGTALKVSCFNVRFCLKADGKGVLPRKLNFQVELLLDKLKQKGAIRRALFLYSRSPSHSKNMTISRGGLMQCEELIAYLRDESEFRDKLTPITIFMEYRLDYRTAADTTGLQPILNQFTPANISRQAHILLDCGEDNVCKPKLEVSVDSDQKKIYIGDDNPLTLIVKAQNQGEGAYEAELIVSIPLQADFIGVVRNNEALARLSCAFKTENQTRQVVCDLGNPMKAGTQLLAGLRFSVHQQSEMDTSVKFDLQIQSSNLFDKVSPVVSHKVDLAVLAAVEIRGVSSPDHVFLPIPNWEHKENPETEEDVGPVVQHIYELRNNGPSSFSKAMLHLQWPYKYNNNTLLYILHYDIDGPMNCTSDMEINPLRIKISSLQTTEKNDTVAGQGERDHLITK
Sequence of integrin αV/β5 (P06756 891-1048 partner limits assumed): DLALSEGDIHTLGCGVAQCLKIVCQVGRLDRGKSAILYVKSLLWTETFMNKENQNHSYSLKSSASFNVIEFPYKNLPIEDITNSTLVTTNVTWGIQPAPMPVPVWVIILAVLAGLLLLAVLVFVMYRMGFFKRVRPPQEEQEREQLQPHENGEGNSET
Sequence of integrin αV/β5 (P18084 24-799): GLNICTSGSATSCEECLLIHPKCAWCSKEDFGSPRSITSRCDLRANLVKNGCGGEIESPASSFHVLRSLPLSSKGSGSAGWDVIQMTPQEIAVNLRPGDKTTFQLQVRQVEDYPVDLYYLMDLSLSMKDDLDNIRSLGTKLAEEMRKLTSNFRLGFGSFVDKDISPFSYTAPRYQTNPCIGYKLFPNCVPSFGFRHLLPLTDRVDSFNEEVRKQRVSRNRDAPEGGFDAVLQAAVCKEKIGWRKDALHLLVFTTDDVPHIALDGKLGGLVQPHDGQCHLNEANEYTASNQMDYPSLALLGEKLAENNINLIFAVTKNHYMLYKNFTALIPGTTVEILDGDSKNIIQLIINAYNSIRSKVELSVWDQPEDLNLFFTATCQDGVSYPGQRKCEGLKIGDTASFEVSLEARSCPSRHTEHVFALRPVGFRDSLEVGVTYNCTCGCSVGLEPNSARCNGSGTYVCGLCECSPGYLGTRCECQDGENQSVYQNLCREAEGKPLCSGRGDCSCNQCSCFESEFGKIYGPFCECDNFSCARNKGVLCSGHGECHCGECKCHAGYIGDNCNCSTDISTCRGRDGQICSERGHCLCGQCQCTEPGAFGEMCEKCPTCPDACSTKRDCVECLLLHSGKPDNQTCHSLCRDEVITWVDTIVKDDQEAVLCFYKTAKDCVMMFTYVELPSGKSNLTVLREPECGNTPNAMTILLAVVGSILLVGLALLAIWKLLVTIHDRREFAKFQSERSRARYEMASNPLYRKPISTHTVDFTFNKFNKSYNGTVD
T1 sequence (P08648 42-894 limits assumed): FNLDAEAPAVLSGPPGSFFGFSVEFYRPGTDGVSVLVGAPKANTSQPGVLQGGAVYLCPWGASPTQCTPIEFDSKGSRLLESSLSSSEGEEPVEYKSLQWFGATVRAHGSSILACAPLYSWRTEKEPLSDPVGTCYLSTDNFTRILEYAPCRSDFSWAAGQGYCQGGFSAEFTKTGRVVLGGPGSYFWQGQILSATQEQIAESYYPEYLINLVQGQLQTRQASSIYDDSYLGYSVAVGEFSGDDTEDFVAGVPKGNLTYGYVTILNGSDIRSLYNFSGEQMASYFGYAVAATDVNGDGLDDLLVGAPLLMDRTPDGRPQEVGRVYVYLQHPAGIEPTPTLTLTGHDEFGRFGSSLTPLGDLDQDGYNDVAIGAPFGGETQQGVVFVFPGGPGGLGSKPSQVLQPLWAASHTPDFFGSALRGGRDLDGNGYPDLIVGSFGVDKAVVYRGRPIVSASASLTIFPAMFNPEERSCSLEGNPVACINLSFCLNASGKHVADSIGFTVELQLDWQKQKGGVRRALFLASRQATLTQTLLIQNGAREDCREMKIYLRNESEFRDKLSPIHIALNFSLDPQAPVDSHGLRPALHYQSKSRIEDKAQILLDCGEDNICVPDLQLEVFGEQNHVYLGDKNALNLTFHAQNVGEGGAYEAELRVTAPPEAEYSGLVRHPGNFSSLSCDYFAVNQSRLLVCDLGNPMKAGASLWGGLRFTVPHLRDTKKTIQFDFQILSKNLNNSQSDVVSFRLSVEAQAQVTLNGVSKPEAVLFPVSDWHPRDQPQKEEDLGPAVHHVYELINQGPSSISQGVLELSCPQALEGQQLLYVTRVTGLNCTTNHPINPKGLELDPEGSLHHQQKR
T1 sequence (P08648 895-1049 partner limits assumed): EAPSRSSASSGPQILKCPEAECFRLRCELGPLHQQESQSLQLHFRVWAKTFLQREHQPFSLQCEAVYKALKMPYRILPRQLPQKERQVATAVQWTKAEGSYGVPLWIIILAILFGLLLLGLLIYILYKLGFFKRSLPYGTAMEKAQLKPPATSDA
T1 sequence (P05556 21-798): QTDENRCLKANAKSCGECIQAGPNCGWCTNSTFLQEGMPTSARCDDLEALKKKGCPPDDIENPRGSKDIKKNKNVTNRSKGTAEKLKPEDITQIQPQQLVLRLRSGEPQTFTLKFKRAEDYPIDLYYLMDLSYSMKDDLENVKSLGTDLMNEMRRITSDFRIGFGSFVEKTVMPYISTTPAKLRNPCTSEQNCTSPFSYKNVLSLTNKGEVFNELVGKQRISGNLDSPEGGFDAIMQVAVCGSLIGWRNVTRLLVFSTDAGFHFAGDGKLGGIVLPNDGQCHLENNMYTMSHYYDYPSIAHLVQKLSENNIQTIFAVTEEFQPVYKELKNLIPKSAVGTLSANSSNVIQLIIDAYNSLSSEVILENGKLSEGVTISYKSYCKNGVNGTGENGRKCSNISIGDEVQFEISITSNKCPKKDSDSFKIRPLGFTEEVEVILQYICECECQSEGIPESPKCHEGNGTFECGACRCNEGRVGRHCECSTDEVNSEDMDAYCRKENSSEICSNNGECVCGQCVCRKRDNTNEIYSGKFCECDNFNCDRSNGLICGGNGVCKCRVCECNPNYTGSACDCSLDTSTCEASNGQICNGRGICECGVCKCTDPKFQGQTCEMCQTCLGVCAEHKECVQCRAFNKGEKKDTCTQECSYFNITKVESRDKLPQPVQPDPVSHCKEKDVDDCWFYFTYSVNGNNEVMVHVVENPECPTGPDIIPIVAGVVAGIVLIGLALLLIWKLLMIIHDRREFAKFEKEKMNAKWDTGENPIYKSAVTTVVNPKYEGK

B1: irisin: secreted cleaved form of FNDC5; recombinant human/mouse irisin with C-terminal his tag produced in HEK293 cells (protein)
chain: DSPSAPVNVTVRHLKANSAVVSWDVLEDEVVIGFAISQQKKDVRMLRFIQEVNTTTRSCALWDLEEDTEYIVHVQAISIQGQSPASEPVLFKTPREAEKMASKNKDEVTMKE
modifications: left off: small tags and cut ends
notes: secreted cleaved form of FNDC5; recombinant human/mouse irisin with C-terminal his tag produced in HEK293 cells
- phosphorylation of FAK upon irisin treatment [1]: little phosphorylation of FAK above background
- phosphorylation of FAK upon irisin treatment [2]: enhanced level of phosphorylation of FAK
